These results are taken from patent publication US20200017552A1.

Assay [1] deals with HA of Ft. Monmouth influenza virus (on virions) (influenza virus strain Ft. Monmouth). Description: cell-based or functional assay.
Assay [2] has as its target Influenza H1 hemagglutinin (HA), strain not stated for this experiment. Description: biolayer interferometry after incubation at 80 °C; HA strain not stated. In general terms: In BLI a coated tip is dipped into the sample, and binding shifts an interference pattern.

Take mAb FI6v3 (antibody): in assay [1], the EC50 values for inhibition of viral replication in vitro came to 3.1 µg/mL. Besides, the reduction of binding activity after 1 hr at 80 °C in assay [2] came out at 74%.
